Data on one protein can be found in publication PMC10985318.

Substrate in the data set: Nc1ncnc2c1ncn2[C@@H]1O[C@H](COP(=O)(O)OP(=O)(O)OP(=O)(O)O)[C@@H](O)[C@H]1O
Put plainly: purified protein. The conditions noted are these: MgATP, MgCl2 twice the ATP concentration, 25 mM Tris/HCl pH 8.0, 60 mM KCl, 25 °C, at saturating MgATP, non-Michaelis kinetics, local double-reciprocal fit of three consecutive concentrations.

B1: V1ΔHC (S. cerevisiae V1-ATPase lacking subunits H and C) (Saccharomyces cerevisiae S288C) (protein)
chain 1: AGAIENARKEIKRISLEDHAESEYGAIYSVSGPVVIAENMIGCAMYELVKVGHDNLVGEVIRIDGDKATIQVYEETAGLTVGDPVLRTGKPLSVELGPGLMETIYDGIQRPLKAIKEESQSIYIPRGIDTPALDRTIKWQFTPGKFQVGDHISGGDIYGSVFENSLISSHKILLPPRSRGTITWIAPAGEYTLDEKILEVEFDGKKSDFTLYHTWPVRVPRPVTEKLSADYPLLTGQRVLDALFPCVQGGTTCIPGAFGCGKTVISQSLSKYSNSDAIIYVG
chain 2: CGERGNEMAEVLMEFPELYTEMSGTKEPIMKRTTLVANTSNMPVAAREASIYTGITLAEYFRDQGKNVSMIADSSSRWAEALREISGRLGEMPADQGFPAYLGAKLASFYERAGKAVALGSPDRTGSVSIVAAVSPAGGDFSDPVTTATLGITQVFWGLDKKLAQRKHFPSINTSVSYSKYTNVLNKFYDSNYPEFPVLRDRMKEILSNAEELEQVVQLVGKSALSDSDKITLDVATLIKEDFLQQNGYSTYDAFCPIWKTFDMMRAFISYHDEAQKAVANGANWSKLADSTGDVKHAVSSSKFFEPSRGEKEVHGEFEKLLSTMQERFAESTD
chain 3: VLSDKELFAINKKAVEQGFNVKPRLNYNTVSGVNGPLVILEKVKFPRYNEIVNLTLPDGTVRQGQVLEIRGDRAIVQVFEGTSGIDVKKTTVEFTGESLRIPVSEDMLGRIFDGSGRPIDNGPKVFAEDYLDINGSPINPYARIYPEEMISTGVSAIDTMNSIARGQKIPIFSASGLPHNEIAAQICRQAGLVRPTKDVHDGHEENFSIVFAAMGVNLETARFFKQDFEENGSLERTSLFLNLANDPTIERIITPRLALTTAEYLAYQTERHVLTILTDMSSYADALREVSAAREEVPGRRGYPGYMYTDLSTIYERAGRVEGRNGSITQIPILTMPNDDITHPIPDLTGYITEGQIFVDRQLHNKGIYPPINVLPSLSRLMKSAIGEGMTRKDHGDVSNQLYAKYAIGKDAAAMKAVVGEEALSIEDKLSLEFLEKFEKTFITQGAYEDRTVFESLDQAWSLLRIYPKEMLNRISPKILDEFYDRARDDADEDEEDPDTRSSGKKKDASQEESLI
In the case of B1, the Michaelis-Menten constant (Km) – broadly, the concentration of substrate that gives half-maximal velocity – came to 41.7 µM and the kcat (usually the maximal rate divided by the concentration of active sites) came to 9.6 s⁻¹.
